{"source": "the nanobody polyreactivity screen of Harvey et al. (2022)"}
{"test": "yeast display, Sf9 membrane polyspecificity reagent, FACS + sequencing; frameworks hold sequencing errors", "procedure,_shortened": "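Nanobodies came from a synthetic yeast display library in Saccharomyces cerevisiae BJ5465, induced with galactose for 36–48 hours and stained for 1 hour at 4 °C with 10% biotinylated, detergent-solubilized Sf9 membrane reagent. Cells were enriched on streptavidin microbeads and then FACS-sorted, with low and high (top ~1%) gates set on anti-HA fluorescence for expression and streptavidin fluorescence for reagent binding. Each polyreactivity label reflects the gate a clone came from. Genes were amplified by colony PCR, sequenced by MiSeq 2 × 250 and filtered by CDR length.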"}
{"sequence": "QVQLVESGGGLVQAGGSLRLSCAASGSIFGYNTMGWYRQAPGKERELVAAISWNGGNTYYADSVKGRFTISRDNAKNTVYLQMNSLKPEDTEVYYCNARTRSRSRGFDSWGQGTQVTVSS", "polyreactivity (PSR sort gate)": "high polyreactivity"}
{"sequence": "QVQLVESGGGLVQAGGSLRLSCAASGSIFGYNVMGWYRQAPGKERELVATISSSGGTNYADSVKGRFTISRDNAKNTVYLQMNSLKPEDTAVYYCNADVLDGGYDYWGQGTQVTVSS", "polyreactivity (PSR sort gate)": "low polyreactivity"}
{"sequence": "QVQLVESGGGLVQAGGSLRLSCAASGSIFGYSAMGWYRQAPGKERELVAAIDSGGSTYYADSVKGRFTISRDNAKNTVYLQMNSLKPQDTAVYYCAAGVSSFSPYDSWGQGTQVTVSS", "polyreactivity (PSR sort gate)": "low polyreactivity"}
{"sequence": "QVQLVESGGGLVQAGGSLRLSCAASGSIFGYYAMGWYRQAPGKERELVAAISGIGGSTYYADSVKGRFTISRDNAKNTVYLQMNSLKPEDTAVYYCAKARPHVGGGGDYWGQGTQVTVSS", "polyreactivity (PSR sort gate)": "low polyreactivity"}
{"sequence": "QVQLVESGGGLVQAGGSLRLSCAASGSIFGYYAMGWYRQAPGKERELVAAISGSGGSTYYADSVKGRFTISRDNAKYTVYLQMNRLKPEDTAVYYCAAAYHGRHYYWGQGTQVTVSS", "polyreactivity (PSR sort gate)": "high polyreactivity"}
{"sequence": "QVQLVESGGGLVQAGGSLRLSCAASGSIFGYYAMGWYRQAPGKERELVADITVRGGSTYYADSVNGRFTISRDNAKNTVYLQMNSLKPEDTAVYYCAKRFKYIYYWGQGTQVTVSS", "polyreactivity (PSR sort gate)": "high polyreactivity"}
{"sequence": "QVQLVESGGGLVQAGGSLRLSCAASGSIFGYYAMGWYRQAPGKERELVASITRSGGSTYYADSVKGRFTISRDNAKNTVYLQMNSLQPEDTAVYYCAVARYRHGRSGTYDVTGEYWGQGTQVTVSS", "polyreactivity (PSR sort gate)": "high polyreactivity"}
{"sequence": "QVQLVESGGGLVQAGGSLRLSCAASGSIFGYYTKVWYRQARGKEREFVAAINTSGGSTYADSVKGRCTISRDNAKNTVYLQMNSLKPEDTAVYYCAADGYYEYTWGEYDSWGQGTQVTVSS", "polyreactivity (PSR sort gate)": "low polyreactivity"}
{"sequence": "QVQLVESGGGLVQAGGSLRLSCAASGSIFGYYTMGWYRPAPGKERELVAAITSGGSTNYADSVKGRFTISRDNAKNTVYLQMNSLKPEDTAVYYCAKVSYYPWRYDYWGQGTQVTVSS", "polyreactivity (PSR sort gate)": "low polyreactivity"}
{"sequence": "QVQLVESGGGLVQAGGSLRLSCAASGSIFGYYTMGWYRQAPGKERELVAAISQGGARTYYADSVKGRFTISRDNAKNTVYLQMNSLKPEDTAVYYCNAVSPAGYWFDYWGQGTQVTVSS", "polyreactivity (PSR sort gate)": "high polyreactivity"}
{"sequence": "QVQLVESGGGLVQAGGSLRLSCAASGSIFGYYVMGWYRPAPGKERELVAGISYSGGRTYYADSVKGRFTISRDNAKNTVYLQMNSLQPEDTAVYYCAAEGTTSWWVKYGYWGQGTQVTVSS", "polyreactivity (PSR sort gate)": "low polyreactivity"}
{"sequence": "QVQLVESGGGLVQAGGSLRLSCAASGSIFHANAMGWYRQAPGKERELVAAISQSCDTTYYADSVKGRFTISRDNAKNTVYLQMNSLKPEDTAVYYCAAEEGYGAFWYDYWGQGTQVTVSS", "polyreactivity (PSR sort gate)": "high polyreactivity"}
{"sequence": "QVQLVESGGGLVQAGGSLRLSCAASGSIFHANAMGWYRQAPGKERELVAVISQGGGSTYYADSVKGRFTISRDNAKNTVYLQMNSLKPEDTAVYYCAAYYYYSAYGDDYWGQGTQVTVSS", "polyreactivity (PSR sort gate)": "high polyreactivity"}
{"sequence": "QVQLVESGGGLVQAGGSLRLSCAASGSIFHDNAKGWYRQAPGKERELVAAINRGGSTHYADSVKGRFTISRDNAKNTVYLQMNSLKPEDTAVYYCNTVGRGYDYDYWGQGTQVTVSS", "polyreactivity (PSR sort gate)": "low polyreactivity"}
{"sequence": "QVQLVESGGGLVQAGGSLRLSCAASGSIFHNNAMGWYRQAPGKERELVASITSRGGSTYYADSVKGRFTISRDNAKNTVYLQMNSLKPEDTAVYYCAARPYARVKTHGYWGQGTQVTVSS", "polyreactivity (PSR sort gate)": "low polyreactivity"}
{"sequence": "QVQLVESGGGLVQAGGSLRLSCAASGSIFHPNAMGWYRQAPGKERELVAAITKSGGSTYYADSVKGRFTISRDNAKNTVYLQMNSLKPEDTAVYYCNALRYRRVGTLGYDYWGQGTQVTVSS", "polyreactivity (PSR sort gate)": "high polyreactivity"}
{"sequence": "QVQLVESGGGLVQAGGSLRLSCAASGSIFHPYAMGWYRQAPGKERELVAAISKSGGNTYYADSVKGRFTISRDNAKNTVYLQMNSLKPEDTAVYYCAALDYWGQGTLVTVSS", "polyreactivity (PSR sort gate)": "low polyreactivity"}
{"sequence": "QVQLVESGGGLVQAGGSLRLSCAASGSIFHVNAMGWYRQAPGKERELVAGISDGGSTYYADSVKGRFTISRDNAKNTVYLQMNSLKPEDTAVYYCSADDGYTYYWAGYDSWGQGTQVTVSS", "polyreactivity (PSR sort gate)": "low polyreactivity"}
{"sequence": "QVQLVESGGGLVQAGGSLRLSCAASGSIFHWYVMGWYRQAPGKERELVASISWSSGSTYADSVKGRFTISRDNGKNTVYLQMNSLKPEDTAVYFCNAKTYYPPFGYWGQGTQVTVSS", "polyreactivity (PSR sort gate)": "low polyreactivity"}
{"sequence": "QVQLVESGGGLVQAGGSLRLSCAASGSIFHYNTMGWYRQAPGKERELVAAITYSGGSTYYADSVKGRYTISRDNAKNPVYLQMNSLKPEDTAVYYCAVRGPGTSTYWYHEYEYWGQGTQVTVSS", "polyreactivity (PSR sort gate)": "high polyreactivity"}
{"sequence": "QVQLVESGGGLVQAGGSLRLSCAASGSIFHYYTMGWYRQAPGKERELVAGISRSGTSTFYADSVKGRFTISRDNAKKTVYLQMNSLKPEDTAVSYCNAYSPGSYYYWPYDYWGQGTQVTVSS", "polyreactivity (PSR sort gate)": "high polyreactivity"}
{"sequence": "QVQLVESGGGLVQAGGSLRLSCAASGSIFIFNAMVWYRQAPGKEREFVARIRRDSSTYYADSVKGRFTISRDNAKNTVYLQMNSLKPEDTAVYYCAAKRVYRRVELNSWGQGTQVTVSS", "polyreactivity (PSR sort gate)": "low polyreactivity"}
{"sequence": "QVQLVESGGGLVQAGGSLRLSCAASGSIFIGYAMGWYRQAPGKERELVAAITSGGSTYADSVKGRFTISRDNAKNTVYLQMNSLKPEDTAVYYCAAPRTYYSELTSPYDYWGQGTQVTVSS", "polyreactivity (PSR sort gate)": "low polyreactivity"}
{"sequence": "QVQLVESGGGLVQAGGSLRLSCAASGSIFILYAMVWYRQAPGKERELVAAISSTGTTYYADSVKGRFTISRDNAKNTVYLQMNSLKPEDTAVYYCATDEPSSGRTPYDYWGQGTQVTVSS", "polyreactivity (PSR sort gate)": "low polyreactivity"}
{"sequence": "QVQLVESGGGLVQAGGSLRLSCAASGSIFINNAMGWYRQATGKERELVSAIRRGDSTTYADSVKGRFTISRDNAKNTVYLQMNSLKPEDTAVYYCATSPWWYGYAAYGMDYWGQGTQVTVSS", "polyreactivity (PSR sort gate)": "low polyreactivity"}
{"sequence": "QVQLVESGGGLVQAGGSLRLSCAASGSIFIPNAMGWYRQAPGKERELVAAITSGGRTYYADSVKGRFTISRDNAKNTVYLQMNSLKPEDTAVYYCAARSGYRYVESDYWGQGTQVTVSS", "polyreactivity (PSR sort gate)": "high polyreactivity"}
{"sequence": "QVQLVESGGGLVQAGGSLRLSCAASGSIFIPYAMGWYRQAPGKERDLVAAIRYSGASTYYADSVKGRFTISRDNAKNTVFLQMNSLKPEDTAVYYCAARVVDQEVGRPYYYWGQGTQVTVSS", "polyreactivity (PSR sort gate)": "high polyreactivity"}
{"sequence": "QVQLVESGGGLVQAGGSLRLSCAASGSIFIQYAMGWYRQAPGKERELVAAITSGDDTYYADSVKGRFTISRDNAKNTVYLQMNSLKPEDTAVYYCAKRAHFSSARHVYYIYDYWGQGTQVTVSS", "polyreactivity (PSR sort gate)": "low polyreactivity"}
{"sequence": "QVQLVESGGGLVQAGGSLRLSCAASGSIFIRYVMGWYRQAPGKERELVAAITGSGSRTYYADSVKGRFTISRDNAKNTVYLQMNSLKPEDTAVYYCAADWTKSRRYYWGQGTQVTVSS", "polyreactivity (PSR sort gate)": "high polyreactivity"}
{"sequence": "QVQLVESGGGLVQAGGSLRLSCAASGSIFISYAMGWYRQAPGKESELVDAINYSGGSTYYADSVKGRFTISRDNAKNTVYLQMNSLKPEDTAVYYCAKRSTYRYYGYKLRDYWGQGTQVTVSS", "polyreactivity (PSR sort gate)": "low polyreactivity"}
{"sequence": "QVQLVESGGGLVQAGGSLRLSCAASGSIFITYAMGWYRQAPGKERELVAAIRDSGDRTYYADSVKGRFTISRDNAKNTVYLQMNSLKPEDTEVYYCNALWQEPLKYDYWGQGTQVTVSS", "polyreactivity (PSR sort gate)": "low polyreactivity"}
{"sequence": "QVQLVESGGGLVQAGGSLRLSCAASGSIFIVNAMGWYRPAPGKERELVAAISRSGGRTYYADSVKVRFTISRDNAKNTVYLQMNSLKPEDTAVYYCNARSRARKVAYDYWGQGTQVTVSS", "polyreactivity (PSR sort gate)": "high polyreactivity"}
{"sequence": "QVQLVESGGGLVQAGGSLRLSCAASGSIFIWYAMGWSRQAPGKEREFVAAITYTGTSTYYADSVKGRFTISRDNAKNTVYLQMNSLKPEDTAVYYCAADKSTHPFPSDPGYGYWGQGTQVTVSS", "polyreactivity (PSR sort gate)": "low polyreactivity"}
{"sequence": "QVQLVESGGGLVQAGGSLRLSCAASGSIFIWYAMGWYRQAPGKERELVAAITSSGSTNYADSVKGRFTISRDNAKNTVYLQMNSLKPEDTAVYYCADEYTYYTYNLNYWGQGTQVTVSS", "polyreactivity (PSR sort gate)": "low polyreactivity"}
{"sequence": "QVQLVESGGGLVQAGGSLRLSCAASGSIFIWYTMGWYRQAPGKERELVAAIDWNSGSTYYADSVKGRFTISRDNAKNTVYLQMNSLKPEDTAVYYCAATTFSGWFIFYYWGQGTQVTVSS", "polyreactivity (PSR sort gate)": "low polyreactivity"}
{"sequence": "QVQLVESGGGLVQAGGSLRLSCAASGSIFIYYAMGWKRQAPGKERELVAAISWRGGGTYYADSVKGRFTISRDNAKNTVYLQMNSLKPEDTAVYYCAADFYDPFDYWGQGTQVTVSS", "polyreactivity (PSR sort gate)": "low polyreactivity"}
{"sequence": "QVQLVESGGGLVQAGGSLRLSCAASGSIFIYYAMGWYRQAPGKERELVAAINIGGSTYYADSVKGRFTISRDNAKNTVYFQMNSLKPEDTAVYYCNAATWYRVYPYYIIFDYWGQGTQVTVSS", "polyreactivity (PSR sort gate)": "low polyreactivity"}
{"sequence": "QVQLVESGGGLVQAGGSLRLSCAASGSIFKANAMGWYRQAPGKERELVATISTSSGGTYYADSVKGRFTISRDNAKNTVYLQMNSLKPEDTAVYYCAALTYPPFYWGQGTQVTVSS", "polyreactivity (PSR sort gate)": "high polyreactivity"}
{"sequence": "QVQLVESGGGLVQAGGSLRLSCAASGSIFKFYAMGWYRQAPGKERELVAAISSSGTSTYYADSVKGRFTISRDNAKNTVYLQMNSLKPEDTAVYYCAARGGVQNEVKGSPYYYWGQGTQVTVSS", "polyreactivity (PSR sort gate)": "high polyreactivity"}
{"sequence": "QVQLVESGGGLVQAGGSLRLSCAASGSIFKGYAMGWYRQAPGKERELVAAISIRGGSTYYADSVKGRFTISRDNAKNTVYLQMNSLKPEDTAVYYCAASSKRKYLYNYWGQGTQVTVSS", "polyreactivity (PSR sort gate)": "high polyreactivity"}
{"sequence": "QVQLVESGGGLVQAGGSLRLSCAASGSIFKGYTMGWYRQAPGNERELVASMRPRGGSTYYADSVKGRFTMSRHNAKNPVDLQMNSLKPEDTAVYYCAAPWGGFAGQERKYDYWGQGTQVTVSS", "polyreactivity (PSR sort gate)": "low polyreactivity"}
